Laboratory results reported in patent US11312984B2, “High-purity steviol glycosides” (PURECIRCLE SDN BHD, priority 2013, dated 2022).

Legend:
[1] = Sweetness of reb M compared to a 10% sucrose solution
From the text: The high purity reb M obtained in this invention, having a molecular weight of 1291.29, a molecular formula of C56H90O33, CAS registry number 1220616-44-3, and the structure presented in FIG. 1, is in the form of a white and odorless powder. The compound is about 200 times sweeter than sugar when compared to a 10% sucrose solution.

[2] = Catalytic test of in-vitro expressed UDP-glucosyltransferases, Rebaudioside A to Rebaudioside D (HPLC); assay type: biochemical; conditions: 0.5 mM Rebaudioside A, 30° C.; for Steviol glycoside conversion in reaction mixture, Reb A (Retention Time ~9.1 min): remaining substrate
Description: The prepared expression medium mix was added to the plasmid solution and the solution was allowed to incubate at 30° C. for 3 hours while mixing the mixture every 45 minutes. 5 μL of the mixture was frozen whereas the remainder was used for the catalytic test for the conversion of Rebaudioside A to Rebaudioside D.
(§1) 430 μL of a reaction mixture containing 0.5 mM Rebaudioside A, 3 mM MgCl2, 50 mM phosphate buffer (pH7.2) and 2.5 mM UDP-glucose was added to a 1.5 mL sterile microtube. 52 μL of the enzyme expression medium was added and the resulting mixture was allowed to react at 30° C. for 24 hours. 125 μL samples were taken after 2 hours, 16 hours and 24 hours and added to a 115 μL of 60% methanol and 10 μL of 2 N H2SO4. The quenched sample was centrifuged at 18,000 g for 2 minutes at RT. 200 μL was transferred to an HPLC vial and analyzed.
The HPLC assay was performed as follows:
as §1, with “to” for “to an”
The HPLC assay was performed as described in EXAMPLE 20.

[3] = Stevioside conversion products with UGTSL, UGTSL2 and UGTLB by LC-MS; assay type: biochemical; conditions: reaction time UGTSL2 2 hrs, UGTLB 2 hrs, UGTSL 22 hrs
Description: (§2) Conversion of stevioside with UGTSL and UGTSL2 was conducted in similar manner to Example 28, and the conversion of rubusoside with UGTSL and UGTSL2 was conducted similarly to Example 29. Conversions of rubusoside and stevioside with UGTLB was conducted similarly to Example 32.
(§3) The reaction mixtures were analyzed by LCMS to determine all reaction products.

[4] = Rubusoside conversion products with UGTSL, UGTSL2 and UGTLB by LC-MS; assay type: biochemical; conditions: reaction time UGTSL2 2 hrs, UGTLB 5 hrs, UGTSL 45 hrs
Description: as §2, §3

Molecule	times sweeter than sugar [1]	Steviol glycoside conversion in reaction mixture, Reb UNK (Retention Time ~6.7 min) [2] [% area]	Steviol glycoside conversion in reaction mixture, Reb A (Retention Time ~9.1 min) [2] [% area]	Stevioside conversion products, LC-MS peak area ratio: Reb D [3] [%]	Stevioside conversion products, LC-MS peak area ratio: Reb E [3] [%]	Stevioside conversion products, LC-MS peak area ratio: Stev [3] [%]	Rubusoside conversion products, LC-MS peak area ratio: Reb D [4] [%]	Rubusoside conversion products, LC-MS peak area ratio: Reb E [4] [%]	Rubusoside conversion products, LC-MS peak area ratio: Rub [4] [%]	Rubusoside conversion products, LC-MS peak area ratio: Stev [4] [%]	Steviol glycoside conversion in reaction mixture, Reb D (Retention Time ~5.8 min) [2] [% area]
C=C1C[C@@]23CC[C@H]4[C@@](C)(CCC[C@@]4(C)C(=O)O[C@@H]4O[C@H](CO)[C@@H](O)[C@H](O[C@@H]5O[C@H](CO)[C@@H](O)[C@H](O)[C@H]5O)[C@H]4O[C@@H]4O[C@H](CO)[C@@H](O)[C@H](O)[C@H]4O)[C@@H]2CC[C@]1(O[C@@H]1O[C@H](CO)[C@@H](O)[C@H](O[C@@H]2O[C@H](CO)[C@@H](O)[C@H](O)[C@H]2O)[C@H]1O[C@@H]1O[C@H](CO)[C@@H](O)[C@H](O)[C@H]1O)C3 [reb M, rebaudioside M]	about 200 times	–	–	–	–	–	–	–	–	–	–
S115N05 A7: UGTSL, Solanum lycopersicum cyanidin-3-O-glucoside 2-O-glucuronosyltransferase-like, SEQ ID NO: 5 (protein, listed as Solanum lycopersicum) MSPKLHKELFFHSLYKKTRSNHTMATLKVLMFPFLAYGHISPYLNVAKKLADRGFLIYFCSTPINLKSTIEKIPEKYADSIHLIELHLPELPQLPPHYHTTNGLPPNLNQVLQKALKMSKPNFSKILQNLKPDLVIYDILQRWAKHVANEQNIPAVKLLTSGAAVFSYFFNVLKKPGVEFPFPGIYLRKIEQVRLSEMMSKSDKEKELEDDDDDDDLLVDGNMQIMLMSTSRTIEAKYIDFCTALTNWKVVPVGPPVQDLITNDVDDMELIDWLGTKDENSTVFVSFGSEYFLSKEDMEEVAFALELSNVNFIWVARFPKGEERNLEDALPKGFLERIGERGRVLDKFAPQPRILNHPSTGGFISHCGWNSAMESIDFGVPIIAMPMHLDQPMNARLIVELGVAVEIVRDDDGKIHRGEIAETLKGVITGKTGEKLRAKVRDISKNLKTIRDEEMDAAAEELIQLCRNGN	–	23.3	46.7	0.54	49.68	25.24	3.45	35.88	7.82	2.37	–
S115N06 E1: hypothetical protein OsJ_04191, Oryza sativa Japonica Group, SEQ ID NO: 6 (protein, listed as Oryza sativa) MHVVMLPWLAFGHILPFAEFAKRVARQGHRVTLFSTPRNTRRLIDVPPSLAGRIRVVDIPLPRVEHLPEHAEATIDLPSNDLRPYLRRAYDEAFSRELSRLLQETGPSRPDWVLADYAAYWAPAAASRHGVPCAFLSLFGAAALCFFGPAETLQGRGPYAKTEPAHLTAVPEYVPFPTTVAFRGNEARELFKPSLIPDESGVSESYRFSQSIEGCQLVAVRSNQEFEPEWLELLGELYQKPVIPIGMFPPPPPQDVAGHEETLRWLDRQEPNSVVYAAFGSEVKLTAEQLQRIALGLEASELPFIWAFRAPPDAGDGDGLPGGFKERVNGRGVVCRGWVPQVKFLAHASVGGFLTHAGWNSIAEGLANGVRLVLLPLMFEQGLNARQLAEKKVAVEVARDEDDGSFAANDIVDALRRVMVGEEGDEFGVKVKELAKVFGDDEVNDRYVRDFLKCLSEYKMQRQG	–	7.0	92.8	–	–	–	–	–	–	–	0.14
S115N01 A1: UDP-glucosyltransferase Os03g0702500, Oryza sativa Japonica Group, SEQ ID NO: 3 (protein, listed as Oryza sativa) MDDAHSSQSPLHVVIFPWLAFGHLLPCLDLAERLAARGHRVSFVSTPRNLARLPPVRPELAELVDLVALPLPRVDGLPDGAEATSDVPFDKFELHRKAFDGLAAPFSAFLDTACAGGKRPDWVLADLMHHWVALASQERGVPCAMILPCSAAVVASSAPPTESSADQREAIVRSMGTAAPSFEAKRATEEFATEGASGVSIMTRYSLTLQRSKLVAMRSCPELEPGAFTILTRFYGKPVVPFGLLPPRPDGARGVSKNGKHDAIMQWLDAQPAKSVVYVALGSEAPMSADLLRELAHGLDLAGTRFLWAMRKPAGVDADSVLPAGFLGRTGERGLVTTRWAPQVSILAHAAVCAFLTHCGWGSVVEGLQFGHPLIMLPILGDQGPNARILEGRKLGVAVPRNDEDGSFDRGGVAGAVRAVVVEEEGKTFFANARKLQEIVADREREERCIDEFVQHLTSWNELKNNSDGQYP	–	–	96.7	–	–	–	–	–	–	–	2.1
UGTSL2: UGTSL2, GI_460410132, Solanum lycopersicum UDP-glucosyltransferase, SEQ ID NO: 9 (protein, listed as Solanum lycopersicum) MATNLRVLMFPWLAYGHISPFLNIAKQLADRGFLIYLCSTRINLESIIKKIPEKYADSIHLIELQLPELPELPPHYHTTNGLPPHLNPTLHKALKMSKPNFSRILQNLKPDLLIYDVLQPWAEHVANEQNIPAGKLLTSCAAVFSYFFSFRKNPGVEFPFPAIHLPEVEKVKIREILAKEPEEGGRLDEGNKQMMLMCTSRTIEAKYIDYCTELCNWKVVPVGPPFQDLITNDADNKELIDWLGTKHENSTVFVSFGSEYFLSKEDMEEVAFALELSNVNFIWVARFPKGEERNLEDALPKGFLERIGERGRVLDKFAPQPRILNHPSTGGFISHCGWNSAMESIDFGVPIIAMPIHNDQPINAKLMVELGVAVEIVRDDDGKIHRGEIAETLKSVVTGETGEILRAKVREISKNLKSIRDEEMDAVAEELIQLCRNSNKSK	–	–	–	1.70	42.56	20.01	6.73	52.88	3.54	2.12	–
S115N01 G2: UDP-glycosyltransferase, Avena strigosa, SEQ ID NO: 4 (protein, listed as Avena strigosa) MAVKDEQQSPLHILLFPFLAPGHLIPIADMAALFASRGVRCTILTTPVNAAIIRSAVDRANDAFRGSDCPAIDISVVPFPDVGLPPGVENGNALTSPADRLKFFQAVAELREPFDRFLADNHPDAVVSDSFFHWSTDAAAEHGVPRLGFLGSSMFAGSCNESTLHNNPLETAADDPDALVSLPGLPHRVELRRSQMMDPKKRPDHWALLESVNAADQKSFGEVFNSFHELEPDYVEHYQTTLGRRTWLVGPVALASKDMAGRGSTSARSPDADSCLRWLDTKQPGSVVYVSFGTLIRFSPAELHELARGLDLSGKNFVWVLGRAGPDSSEWMPQGFADLITPRGDRGFIIRGWAPQMLILNHRALGGFVTHCGWNSTLESVSAGVPMVTWPRFADQFQNEKLIVEVLKVGVSIGAKDYGSGIENHDVIRGEVIAESIGKLMGSSEESDAIQRKAKDLGAEARSAVENGGSSYNDVGRLMDELMARRSSVKVGEDIIPTNDGL	–	–	99.4	–	–	–	–	–	–	–	0.6
S115N06 C2: UDP-glucoronosyl/UDP-glucosyl transferase family protein, Arabidopsis lyrata subsp. lyrata, SEQ ID NO: 7 (protein, listed as Arabidopsis lyrata) MDDKKEEVMHIAMFPWLAMGHLLPFLRLSKLLAQKGHKISFISTPRNILRLPKLPSNLSSSITFVSFPLPSISGLPPSSESSMDVPYNKQQSLKAAFDLLQPPLTEFLRLSSPDWIIYDYASHWLPSIAKELGISKAFFSLFNAATLCFMGPSSSLIEESRSTPEDFTVVPPWVPFKSTIVFRYHEVSRYVEKTDEDVTGVSDSVRFGYTIDGSDAVFVRSCPEFEPEWFSLLQDLYRKPVFPIGFLPPVIEDDDDDTTWVRIKEWLDKQRVNSVVYVSLGTEASLRREELTELALGLEKSETPFFWVLRNEPQIPDGFEERVKGRGMVHVGWVPQVKILSHESVGGFLTHCGWNSVVEGIGFGKVPIFLPVLNEQGLNTRLLQGKGLGVEVLRDERDGSFGSDSVADSVRLVMIDDAGEEIREKVKLMKGLFGNMDENIRYVDELVGFMRNDESSQLKEEEEEDDCSDDQSSEVSSETDEKELNLDLKEEKRRISVYKSLSSEFDDYVANEKMG	–	3.9	95.8	–	–	–	–	–	–	–	0.28
